Target: the molecule itself
Assay: AFM imaging + single-molecule force spectroscopy (AFM-SMFS); purified ectodomains in 50 mM TrisHCl/150 mM NaCl/1 mM CaCl2 pH 7.5; imaging on freshly cleaved mica, tapping mode in liquid; SMFS on NTA-Ni2+ coverslips through the His tags, differing persistence length across a trace taken as two cadherins stretched in parallel

B1: His-tagged full murine PCDH15 ectodomain (domain or fragment)
chain: not shown
notes: protocadherin 15 (PCDH15), murine, full ectodomain (11 EC domains), UniProtKB Q99PJ1; also called protocadherin 15; full-length PCDH15 ectodomain; not shown: His tag, C-terminal, kept
B1: binds.

— publication PMC6746995, “Nanomechanics of tip-link cadherins” (Scientific Reports, 2019)
